Experimental data published in patent publication US20190328788A1 (GENAGON THERAPEUTICS, published 2019).
Ends that are not written are not given here.

T1: Growth and Differentiation Factor 15 (GDF15) (UniProt Q99988 197-308, limits assumed)
T1 construct: also called MIC-1; MIC1
T1 sequence (looked up): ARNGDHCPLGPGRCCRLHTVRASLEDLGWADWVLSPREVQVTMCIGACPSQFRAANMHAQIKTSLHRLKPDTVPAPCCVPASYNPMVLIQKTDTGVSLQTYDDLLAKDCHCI

T2: transforming growth factor-beta 2 (TGF-β2) (UniProt P61812 303-414)
T2 construct: also called TGFb2; TGFB2
T2 sequence (looked up): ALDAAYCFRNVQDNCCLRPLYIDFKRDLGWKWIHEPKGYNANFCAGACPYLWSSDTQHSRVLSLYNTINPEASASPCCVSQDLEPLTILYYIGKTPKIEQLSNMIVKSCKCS

T3: transforming growth factor-beta 3 (TGF-β3) (UniProt P10600 301-412)
T3 construct: also called TGFb3; TGFB3
T3 sequence (looked up): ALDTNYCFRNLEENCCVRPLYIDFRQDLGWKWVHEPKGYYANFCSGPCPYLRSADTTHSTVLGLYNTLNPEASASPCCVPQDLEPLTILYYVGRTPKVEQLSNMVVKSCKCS


target: T1, Growth and Differentiation Factor 15 …; assay: ELISA, peptide on streptavidin plate, ligand 100 ng/ml
Description: (§1) Biotinylated synthetic peptide fragments from CLPTM1 (JPT peptides, Germany) were immobilized in a streptavidin 96 well plate (#15500 Pierce) at 1 μM in PBS over night at +4° C. Plate was then washed 4 times in 300 μl PBS with 0.05% tween-20 (wash buffer). The plate was then blocked with PBS 1% BSA and 0.05% tween-20 (blocking buffer) for 1.5 hours at room temperature, then washed 4 times in wash buffer. Ligands GDF15, TGFb1, TGFb2 and TGFb3 (Abcam) were added in blocking buffer at 100 ng/ml and incubated at room temperature for 2 hours. The plate was then washed 8 times in 300 μL wash buffer with 2× NaCl. An anti-GDF15 antibody was added at 1 μg/ml (R&D Systems, goat polyclonal) or a pan-specific anti-TGFb antibody (R&D Systems, mouse 1 D11), and the plate incubated in blocking buffer for 1 hour at room temperature followed by washing with 4×300 μl wash buffer. HAF017 anti-goat-HRP antibody (to detect the anti-GDF15 antibody) or Santa Cruz sc-2005 Goat anti-mouse-HRP (to detect the pan-specific anti-TGFb antibody) was added and the plate incubated for 1 hour in blocking buffer followed by a wash. TMB substrate was added and stopped after 15 minutes with H₂SO₄. OD 450-620 was measured in an ELISA reader.

Row | Binder | ELISA OD450
1 | SALFWEQHDLVYGDWTSGENG (also: biotinylated, site not given here) [CLPTM1 peptide fragment of SEQ ID NO: 14] | 0.034 OD450
2 | DTLMNLHVYISEHEHFTDFNATSALFWEQHDLVYGDWTSG (also: biotinylated, site not given here, also called peptide 29; GT5) [CLPTM1 peptide fragment of SEQ ID NO: 36] | 0.174 OD450
3 | AAAQEADGARSAVVAAGGGSG (also: biotinylated, site not given here) [CLPTM1 peptide fragment of SEQ ID NO: 8] | 0.022 OD450
4 | LDQYVKFDAVSGDYYPIIYFG (also: biotinylated, site not given here, also called peptide 14) [CLPTM1 peptide fragment of SEQ ID NO: 21] | 0.14 OD450
5 | GSIYIHVYFTKSGFHPDPRQG (also: biotinylated, site not given here) [CLPTM1 peptide fragment of SEQ ID NO: 16] | 0.149 OD450
6 | TKSGFHPDPRQKALYRRLATVHMSRMINKYKRRRFQKTKN (also: biotinylated, site not given here, also called peptide 30; GT6) [CLPTM1 peptide fragment of SEQ ID NO: 37] | 0.209 OD450
7 | KALYRRLATVHMSRMINKYKG (also: biotinylated, site not given here, also called peptide 10) [CLPTM1 peptide fragment of SEQ ID NO: 17] | 0.197 OD450
8 | SDGCYEHFAELDIPQSVQQNG (also: biotinylated, site not given here) [CLPTM1 peptide fragment of SEQ ID NO: 15] | 0.024 OD450
9 | LMNLHVYISEHEHFTDFNATG (also: biotinylated, site not given here) [CLPTM1 peptide fragment of SEQ ID NO: 13] | 0.058 OD450

More lines, now with the values ahead:

Row | ELISA OD450 | Binder
10 | 0.016 OD450 | ARSAVVAAGGGSSGQVTSNGSIGRDPPAETQPQNPPAQPA (also: biotinylated, site not given here, also called peptide 27; GT3) [CLPTM1 peptide fragment of SEQ ID NO: 34]
11 | 0.029 OD450 | NAWQVIKGVLFRIFIIWAISSWFRRGPAPQDQAGPGGA (also: biotinylated, site not given here, also called peptide 28; GT4) [CLPTM1 peptide fragment of SEQ ID NO: 35]
12 | 0.022 OD450 | YEQSDEEQDSVKVALLETNPG (also: biotinylated, site not given here) [CLPTM1 peptide fragment of SEQ ID NO: 25]
13 | 0.021 OD450 | RRRFQKTKNLLTGETEADPEG (also: biotinylated, site not given here) [CLPTM1 peptide fragment of SEQ ID NO: 18]

target: T4, transforming growth factor-beta 1 (TGF-β1) (UniProt P01137 279-390); assay: as above
T4 construct: also called TGFb1; TGFB1
Description: as §1

T4 sequence (P01137 279-390 limits assumed): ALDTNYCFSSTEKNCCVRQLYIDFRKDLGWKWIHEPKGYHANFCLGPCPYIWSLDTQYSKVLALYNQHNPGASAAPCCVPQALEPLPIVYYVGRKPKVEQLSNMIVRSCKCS

Row | Binder | ELISA OD450
14 | SALFWEQHDLVYGDWTSGENG (also: biotinylated, site not given here) [CLPTM1 peptide fragment of SEQ ID NO: 14] | 0.022 OD450
15 | DTLMNLHVYISEHEHFTDFNATSALFWEQHDLVYGDWTSG (also: biotinylated, site not given here, also called peptide 29; GT5) [CLPTM1 peptide fragment of SEQ ID NO: 36] | 1.64 OD450
16 | AAAQEADGARSAVVAAGGGSG (also: biotinylated, site not given here) [CLPTM1 peptide fragment of SEQ ID NO: 8] | 0.012 OD450
17 | LDQYVKFDAVSGDYYPIIYFG (also: biotinylated, site not given here, also called peptide 14) [CLPTM1 peptide fragment of SEQ ID NO: 21] | 0.152 OD450
18 | GSIYIHVYFTKSGFHPDPRQG (also: biotinylated, site not given here) [CLPTM1 peptide fragment of SEQ ID NO: 16] | 0.122 OD450
19 | TKSGFHPDPRQKALYRRLATVHMSRMINKYKRRRFQKTKN (also: biotinylated, site not given here, also called peptide 30; GT6) [CLPTM1 peptide fragment of SEQ ID NO: 37] | 0.389 OD450
20 | KALYRRLATVHMSRMINKYKG (also: biotinylated, site not given here, also called peptide 10) [CLPTM1 peptide fragment of SEQ ID NO: 17] | 0.913 OD450
21 | SDGCYEHFAELDIPQSVQQNG (also: biotinylated, site not given here) [CLPTM1 peptide fragment of SEQ ID NO: 15] | 0.006 OD450
22 | LMNLHVYISEHEHFTDFNATG (also: biotinylated, site not given here) [CLPTM1 peptide fragment of SEQ ID NO: 13] | 0.02 OD450

The next lines start with the values.

Row | ELISA OD450 | Binder
23 | 0.058 OD450 | ARSAVVAAGGGSSGQVTSNGSIGRDPPAETQPQNPPAQPA (also: biotinylated, site not given here, also called peptide 27; GT3) [CLPTM1 peptide fragment of SEQ ID NO: 34]
24 | 0.098 OD450 | NAWQVIKGVLFRIFIIWAISSWFRRGPAPQDQAGPGGA (also: biotinylated, site not given here, also called peptide 28; GT4) [CLPTM1 peptide fragment of SEQ ID NO: 35]
25 | 0.01 OD450 | YEQSDEEQDSVKVALLETNPG (also: biotinylated, site not given here) [CLPTM1 peptide fragment of SEQ ID NO: 25]
26 | 0.002 OD450 | RRRFQKTKNLLTGETEADPEG (also: biotinylated, site not given here) [CLPTM1 peptide fragment of SEQ ID NO: 18]

target: T2, transforming growth factor-beta 2 …; assay: as above
Description: as §1

Row | Binder | ELISA OD450
27 | SALFWEQHDLVYGDWTSGENG (also: biotinylated, site not given here) [CLPTM1 peptide fragment of SEQ ID NO: 14] | 0.002 OD450
28 | DTLMNLHVYISEHEHFTDFNATSALFWEQHDLVYGDWTSG (also: biotinylated, site not given here, also called peptide 29; GT5) [CLPTM1 peptide fragment of SEQ ID NO: 36] | 0.838 OD450
29 | AAAQEADGARSAVVAAGGGSG (also: biotinylated, site not given here) [CLPTM1 peptide fragment of SEQ ID NO: 8] | 0.01 OD450
30 | LDQYVKFDAVSGDYYPIIYFG (also: biotinylated, site not given here, also called peptide 14) [CLPTM1 peptide fragment of SEQ ID NO: 21] | 0.019 OD450
31 | GSIYIHVYFTKSGFHPDPRQG (also: biotinylated, site not given here) [CLPTM1 peptide fragment of SEQ ID NO: 16] | 0.107 OD450
32 | TKSGFHPDPRQKALYRRLATVHMSRMINKYKRRRFQKTKN (also: biotinylated, site not given here, also called peptide 30; GT6) [CLPTM1 peptide fragment of SEQ ID NO: 37] | 0.483 OD450
33 | KALYRRLATVHMSRMINKYKG (also: biotinylated, site not given here, also called peptide 10) [CLPTM1 peptide fragment of SEQ ID NO: 17] | 1.01 OD450
34 | SDGCYEHFAELDIPQSVQQNG (also: biotinylated, site not given here) [CLPTM1 peptide fragment of SEQ ID NO: 15] | -0.003 OD450
35 | LMNLHVYISEHEHFTDFNATG (also: biotinylated, site not given here) [CLPTM1 peptide fragment of SEQ ID NO: 13] | 0.005 OD450

Next, values leading:

Row | ELISA OD450 | Binder
36 | 0.123 OD450 | ARSAVVAAGGGSSGQVTSNGSIGRDPPAETQPQNPPAQPA (also: biotinylated, site not given here, also called peptide 27; GT3) [CLPTM1 peptide fragment of SEQ ID NO: 34]
37 | 0.031 OD450 | NAWQVIKGVLFRIFIIWAISSWFRRGPAPQDQAGPGGA (also: biotinylated, site not given here, also called peptide 28; GT4) [CLPTM1 peptide fragment of SEQ ID NO: 35]
38 | 0.007 OD450 | YEQSDEEQDSVKVALLETNPG (also: biotinylated, site not given here) [CLPTM1 peptide fragment of SEQ ID NO: 25]
39 | 0.002 OD450 | RRRFQKTKNLLTGETEADPEG (also: biotinylated, site not given here) [CLPTM1 peptide fragment of SEQ ID NO: 18]

target: T3, transforming growth factor-beta 3 …; assay: as above
Description: as §1

Row | Binder | ELISA OD450
40 | SALFWEQHDLVYGDWTSGENG (also: biotinylated, site not given here) [CLPTM1 peptide fragment of SEQ ID NO: 14] | 0.02 OD450
41 | DTLMNLHVYISEHEHFTDFNATSALFWEQHDLVYGDWTSG (also: biotinylated, site not given here, also called peptide 29; GT5) [CLPTM1 peptide fragment of SEQ ID NO: 36] | 0.095 OD450
42 | AAAQEADGARSAVVAAGGGSG (also: biotinylated, site not given here) [CLPTM1 peptide fragment of SEQ ID NO: 8] | 0.015 OD450
43 | LDQYVKFDAVSGDYYPIIYFG (also: biotinylated, site not given here, also called peptide 14) [CLPTM1 peptide fragment of SEQ ID NO: 21] | 0.065 OD450
44 | GSIYIHVYFTKSGFHPDPRQG (also: biotinylated, site not given here) [CLPTM1 peptide fragment of SEQ ID NO: 16] | 0.02 OD450
45 | TKSGFHPDPRQKALYRRLATVHMSRMINKYKRRRFQKTKN (also: biotinylated, site not given here, also called peptide 30; GT6) [CLPTM1 peptide fragment of SEQ ID NO: 37] | 0.613 OD450
46 | KALYRRLATVHMSRMINKYKG (also: biotinylated, site not given here, also called peptide 10) [CLPTM1 peptide fragment of SEQ ID NO: 17] | 0.046 OD450
47 | SDGCYEHFAELDIPQSVQQNG (also: biotinylated, site not given here) [CLPTM1 peptide fragment of SEQ ID NO: 15] | 0.004 OD450
48 | LMNLHVYISEHEHFTDFNATG (also: biotinylated, site not given here) [CLPTM1 peptide fragment of SEQ ID NO: 13] | 0.014 OD450

The remaining lines, values ahead:

Row | ELISA OD450 | Binder
49 | 0.003 OD450 | ARSAVVAAGGGSSGQVTSNGSIGRDPPAETQPQNPPAQPA (also: biotinylated, site not given here, also called peptide 27; GT3) [CLPTM1 peptide fragment of SEQ ID NO: 34]
50 | 0.027 OD450 | NAWQVIKGVLFRIFIIWAISSWFRRGPAPQDQAGPGGA (also: biotinylated, site not given here, also called peptide 28; GT4) [CLPTM1 peptide fragment of SEQ ID NO: 35]
51 | 0.014 OD450 | YEQSDEEQDSVKVALLETNPG (also: biotinylated, site not given here) [CLPTM1 peptide fragment of SEQ ID NO: 25]
52 | 0.004 OD450 | RRRFQKTKNLLTGETEADPEG (also: biotinylated, site not given here) [CLPTM1 peptide fragment of SEQ ID NO: 18]
